Reference: FireProtDB (doi:10.1021/bi00236a021)
“And” between values parts separate entries of the source, which are not always exact repeats. Identical values can stand only once.

Settings: Escherichia coli (strain K12), whole UniProt chain shown
[1] = pH 7, Thermal, CD, Potassium phosphate 10 mM
[2] = pH 8, 30 °C, GdnHCl, Fluorescence, Tris-HCl 50 mM

B1: Glutaredoxin 1 wild type, P68688 (protein)
chain: MQTVIFGRSGCPYCVRAKDLAEKLSNERDDFQYQYVDIRAEGITKEDLQQKAGKPVETVPQIFVDQQHIGGYTDFAAWVKENLDA
- unfolding free energy (pH 7, 25 °C, Thermal, CD, Potassium phosphate 10 mM): 4.7 kcal/mol
- unfolding free energy (pH 7, 30 °C, Thermal, CD, Potassium phosphate 10 mM): 4.1 kcal/mol and 5 kcal/mol
- Tm [1]: 55 °C and 57 °C
- unfolding enthalpy (van 't Hoff) [1]: 67 kcal/mol and 75 kcal/mol
- denaturant midpoint (higher = more stable) [2]: 2 M
- unfolding free energy [2]: 4.2 kcal/mol and 6.1 kcal/mol
